Reference: patent US20110070156A1 (published 2011)

T1: Trop-2 (EGP-1, epithelial glycoprotein-1) (human, UniProt P09758 27-323)
T1 construct: whole, on cells
T1 sequence (looked up): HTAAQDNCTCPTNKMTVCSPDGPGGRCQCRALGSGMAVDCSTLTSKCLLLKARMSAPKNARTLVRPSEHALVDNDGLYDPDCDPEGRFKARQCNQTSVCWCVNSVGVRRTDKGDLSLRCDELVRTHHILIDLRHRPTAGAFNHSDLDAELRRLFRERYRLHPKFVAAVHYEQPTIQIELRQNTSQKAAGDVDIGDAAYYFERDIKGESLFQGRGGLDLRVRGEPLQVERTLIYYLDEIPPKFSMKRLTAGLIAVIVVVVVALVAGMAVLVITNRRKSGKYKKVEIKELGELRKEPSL


How the values were obtained:
[1] = molecular target: Trop-2 (EGP-1, epithelial glycoprotein-1) (human) (UniProt P09758)
[2] = molecular target: Trop-2 (EGP-1, epithelial glycoprotein-1) (human) (UniProt P09758); test: cell-based or functional assay
[3] = molecular target: Trop-2 (EGP-1, epithelial glycoprotein-1) (human) (UniProt P09758); test: ELISA on Trop-2-expressing cell lines PC-3 and Calu-3
[4] = molecular target: T1, Trop-2 (EGP-1, epithelial …); test: ELISA on Trop-2-expressing cell lines PC-3 and Calu-3; apparent dissociation constant

Molecule	Kd [1] [nM]	EC50, MTS cell proliferation assay, Calu-3 cells [2] [nM]	EC50, MTS cell proliferation assay, MDA-MB-468 cells [2] [nM]	EC50, MTS cell proliferation assay, ME-180 cells [2] [nM]	EC50, MTS cell proliferation assay, T-47D cells [2] [nM]	fold of apparent KD against hRS7 [3] [fold]	Kd [4] [nM]
2L-Rap(Q)-hRS7	0.28	8.5	3.8	1.5	2	2	
hRS7 IgG (humanized RS7, anti-Trop-2 / anti-EGP-1) (antibody, V domains shown) VH: QVQLQQSGSELKKPGASVKVSCKASGYTFTNYGMNWVKQAPGQGLKWMGWINTYTGEPTYTDDFKGRFAFSLDTSVSTAYLQISSLKADDTAVYFCARGGFGSSYWYFDVWGQGSLVTVSS VL: DIQLTQSPSSLSASVGDRVSITCKASQDVSIAVAWYQQKPGKAPKLLIYSASYRYTGVPDRFSGSGSGTDFTLTISSLQPEDFAVYYCQQHYITPLTFGAGTKVEIKR							0.14
